Measured values taken from patent publication EP2878677A1, “Activators of protein phosphatase 5” (Deutsches Zentrum für Neurodegenerative Erkrankungen e.V. …, priority 2013, dated 2015).

Target: PPH-5 (C. elegans protein phosphatase 5) (C. elegans)
Experiment: competition in sedimentation velocity AUC; 60 uM peptide, 300 nM YFP-Hsp90, 3 uM PPH-5; the peptide competes with YFP-Hsp90

sedimentation coefficient (s20,w) of the YFP-Hsp90/PPH-5 complex in presence of the peptide: 7.6 S
Binder: AEEDASRMEEVD [C-terminal Hsp90/DAF-21 peptide (…)]
